Measured values: patent publication US20100028347A1
Blank lines part the entries; values can stand above or below the substance they belong to.

What was measured:
[1] = molecular target: human VEGFR-2 alkaline phosphatase (human) (UniProt P35968); assay: ELISA: antibody dilutions on plate coated with 1 µg/ml human VEGFR-2 alkaline phosphatase, HRP secondary, O.D. 450
[2] = molecular target: human VEGFR-2 alkaline phosphatase (human) (UniProt P35968); assay: ELISA: plate coated with huVEGFR-2-AP 100 ng/well, goat anti-human kappa-HRP, O.D. 450
[3] = molecular target: native VEGFR-1 expressed on the cell surface (human) (UniProt P17948); assay: flow cytometry on PAE-VEGFR-1 cells, FITC goat anti-human IgG
mouse VEGFR-1 Fc (mouse) = mouse VEGFR-1 Fc (mouse) (UniProt P35969); assay: ELISA: antibody dilutions on plate coated with 1 µg/ml mouse VEGFR-1 Fc, HRP secondary, O.D. 450
mouse VEGFR-1-AP (mouse) = mouse VEGFR-1-AP (mouse) (UniProt P35969); assay: ELISA: plate coated with mouse VEGFR-1-AP 100 ng/well, goat anti-rat IgG-HRP, O.D. 450
Chain of mouse VEGFR-1-AP (mouse) (P35969 23-759): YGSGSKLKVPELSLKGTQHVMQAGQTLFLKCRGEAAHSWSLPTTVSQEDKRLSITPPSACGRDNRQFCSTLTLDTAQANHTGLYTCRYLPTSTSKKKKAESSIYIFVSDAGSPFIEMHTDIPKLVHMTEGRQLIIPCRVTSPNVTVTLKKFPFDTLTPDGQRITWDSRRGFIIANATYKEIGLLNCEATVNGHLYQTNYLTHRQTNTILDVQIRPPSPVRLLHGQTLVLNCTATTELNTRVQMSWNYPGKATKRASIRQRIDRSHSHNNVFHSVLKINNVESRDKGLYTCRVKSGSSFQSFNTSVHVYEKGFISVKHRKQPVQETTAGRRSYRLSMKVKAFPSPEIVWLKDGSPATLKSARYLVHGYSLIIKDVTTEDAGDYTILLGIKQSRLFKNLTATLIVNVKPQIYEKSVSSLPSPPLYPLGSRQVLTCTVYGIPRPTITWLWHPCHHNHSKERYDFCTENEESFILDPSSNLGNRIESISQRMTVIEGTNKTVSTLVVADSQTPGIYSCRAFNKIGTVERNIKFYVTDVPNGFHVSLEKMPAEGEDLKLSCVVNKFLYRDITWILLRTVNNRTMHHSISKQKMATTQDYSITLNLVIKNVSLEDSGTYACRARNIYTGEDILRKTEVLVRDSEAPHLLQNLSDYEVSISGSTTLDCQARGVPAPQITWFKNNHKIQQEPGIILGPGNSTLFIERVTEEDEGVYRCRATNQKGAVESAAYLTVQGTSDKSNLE

Chain of human VEGFR-2 alkaline phosphatase (human) (P35968 20-764): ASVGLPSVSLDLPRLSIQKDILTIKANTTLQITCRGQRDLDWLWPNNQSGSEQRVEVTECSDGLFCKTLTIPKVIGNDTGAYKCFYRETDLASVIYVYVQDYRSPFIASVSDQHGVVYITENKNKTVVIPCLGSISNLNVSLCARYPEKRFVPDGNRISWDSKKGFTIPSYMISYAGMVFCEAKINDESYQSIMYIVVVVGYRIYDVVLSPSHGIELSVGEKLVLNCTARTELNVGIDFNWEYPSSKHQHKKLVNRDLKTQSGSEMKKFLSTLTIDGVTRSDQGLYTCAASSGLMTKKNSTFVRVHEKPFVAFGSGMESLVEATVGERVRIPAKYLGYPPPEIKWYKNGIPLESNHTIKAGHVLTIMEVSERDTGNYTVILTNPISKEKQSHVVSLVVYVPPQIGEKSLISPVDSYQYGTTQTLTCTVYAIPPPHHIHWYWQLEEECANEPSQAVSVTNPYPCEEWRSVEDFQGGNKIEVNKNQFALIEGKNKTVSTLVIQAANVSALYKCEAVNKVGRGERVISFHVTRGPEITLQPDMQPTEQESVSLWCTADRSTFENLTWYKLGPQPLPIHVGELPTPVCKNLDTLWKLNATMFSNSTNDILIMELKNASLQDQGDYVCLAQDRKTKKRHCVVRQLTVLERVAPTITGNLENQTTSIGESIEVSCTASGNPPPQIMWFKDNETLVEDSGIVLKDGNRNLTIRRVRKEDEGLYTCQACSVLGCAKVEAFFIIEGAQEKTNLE
Chain of mouse VEGFR-1 Fc (mouse) (P35969 23-759 limits assumed): as the sequence (P35969 23-759) above
Chain of native VEGFR-1 expressed on the cell surface (human) (P17948 27-1338): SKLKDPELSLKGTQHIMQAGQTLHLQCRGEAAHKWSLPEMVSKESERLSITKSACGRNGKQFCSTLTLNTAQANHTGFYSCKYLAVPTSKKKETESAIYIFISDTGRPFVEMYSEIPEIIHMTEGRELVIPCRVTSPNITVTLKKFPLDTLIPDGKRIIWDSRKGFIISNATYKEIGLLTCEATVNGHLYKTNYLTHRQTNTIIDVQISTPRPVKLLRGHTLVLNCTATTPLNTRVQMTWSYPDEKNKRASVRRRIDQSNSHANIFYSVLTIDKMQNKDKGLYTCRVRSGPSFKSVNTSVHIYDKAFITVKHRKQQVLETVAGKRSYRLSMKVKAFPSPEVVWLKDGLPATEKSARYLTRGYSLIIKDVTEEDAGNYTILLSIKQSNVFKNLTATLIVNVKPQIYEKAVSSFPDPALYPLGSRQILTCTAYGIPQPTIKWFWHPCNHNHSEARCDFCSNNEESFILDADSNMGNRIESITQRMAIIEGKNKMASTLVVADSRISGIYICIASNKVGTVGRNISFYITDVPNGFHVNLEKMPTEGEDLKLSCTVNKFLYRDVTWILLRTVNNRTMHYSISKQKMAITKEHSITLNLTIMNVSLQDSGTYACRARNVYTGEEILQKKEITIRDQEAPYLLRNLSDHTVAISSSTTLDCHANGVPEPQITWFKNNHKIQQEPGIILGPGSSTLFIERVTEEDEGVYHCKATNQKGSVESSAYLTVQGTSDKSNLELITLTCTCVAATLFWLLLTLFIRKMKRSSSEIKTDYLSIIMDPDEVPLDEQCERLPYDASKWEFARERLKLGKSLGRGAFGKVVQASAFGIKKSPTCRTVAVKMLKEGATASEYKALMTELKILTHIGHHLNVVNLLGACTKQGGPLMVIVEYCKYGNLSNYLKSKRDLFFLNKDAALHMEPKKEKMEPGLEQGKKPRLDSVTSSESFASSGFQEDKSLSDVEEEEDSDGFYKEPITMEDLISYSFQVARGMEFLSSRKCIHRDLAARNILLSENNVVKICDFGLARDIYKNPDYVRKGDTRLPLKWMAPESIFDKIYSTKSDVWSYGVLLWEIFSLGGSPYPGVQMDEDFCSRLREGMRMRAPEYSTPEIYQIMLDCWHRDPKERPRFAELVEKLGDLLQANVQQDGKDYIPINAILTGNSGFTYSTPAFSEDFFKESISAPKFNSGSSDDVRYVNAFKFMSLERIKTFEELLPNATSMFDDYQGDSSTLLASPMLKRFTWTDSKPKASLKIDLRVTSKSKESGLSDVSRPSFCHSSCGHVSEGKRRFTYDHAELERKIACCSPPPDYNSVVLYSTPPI

EC50 (read off the curve) [1]: 8 ng/mL
EC50 (read off the curve) [2]: 8 ng/mL
Substance: 1C11 (antibody)

MFI [3]: 2.6
Substance: Control IgG (antibody)

EC50 (read off the curve) (mouse VEGFR-1 Fc (mouse)): 0.8 ng/mL
EC50 (read off the curve) (mouse VEGFR-1-AP (mouse)): 0.8 ng/mL
Substance: rat anti-mouse VEGFR-1 antibody MF1
